# Patent US20200207830A1, “TREM2 MUTANTS RESISTANT TO SHEDDASE CLEAVAGE” (NOVARTIS AG, priority 2017, published 2020)
# No end group written: not given here.
# T1: ADAM10 (Homo sapiens, UniProt O14672)
# T1 sequence (O14672 214-748): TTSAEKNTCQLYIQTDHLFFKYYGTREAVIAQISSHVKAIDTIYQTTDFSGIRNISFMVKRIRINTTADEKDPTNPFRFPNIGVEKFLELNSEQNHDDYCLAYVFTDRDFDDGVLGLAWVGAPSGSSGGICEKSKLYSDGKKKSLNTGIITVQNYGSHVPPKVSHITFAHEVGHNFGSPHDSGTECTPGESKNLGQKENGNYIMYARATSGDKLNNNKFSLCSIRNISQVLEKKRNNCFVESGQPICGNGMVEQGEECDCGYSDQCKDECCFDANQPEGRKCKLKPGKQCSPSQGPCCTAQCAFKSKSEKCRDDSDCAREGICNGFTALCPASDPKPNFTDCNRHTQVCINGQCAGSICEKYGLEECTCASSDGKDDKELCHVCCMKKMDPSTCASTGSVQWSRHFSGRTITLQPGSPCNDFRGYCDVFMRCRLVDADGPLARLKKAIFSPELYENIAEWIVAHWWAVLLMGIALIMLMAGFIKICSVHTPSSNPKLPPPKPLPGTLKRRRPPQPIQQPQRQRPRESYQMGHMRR
# B1: TRUNCIII-159-174: human TREM2 mutant, deletion of the 16 amino acids 159-174 proximal to the transmembrane domain; SEQ ID NO: 44 (protein)
# chain: MEPLRLLILLFVTELSGAHNTTVFQGVAGQSLQVSCPYDSMKHWGRRKAWCRQLGEKGPCQRVVSTHNLWLLSFLRRWNGSTAITDDTLGGTLTITLRNLQPHDAGLYQCQSLHGSEADTLRKVLVEVLADPLDHRDAGDLWFPGESESFEDAHVEHSILLLLACIFLIKILAASALWAAAWHGQKPGTHPPSELDCGHDPGYQLQTLPGLRDT
# B2: T2-WFR: human TREM2 mutant, amino acids 169-172 replaced with larger hydrophobic residues; SEQ ID NO: 47 (protein)
# chain: MEPLRLLILLFVTELSGAHNTTVFQGVAGQSLQVSCPYDSMKHWGRRKAWCRQLGEKGPCQRVVSTHNLWLLSFLRRWNGSTAITDDTLGGTLTITLRNLQPHDAGLYQCQSLHGSEADTLRKVLVEVLADPLDHRDAGDLWFPGESESFEDAHVEHSISRSLLEGEIWFRWTSILLLLACIFLIKILAASALWAAAWHGQKPGTHPPSELDCGHDPGYQLQTLPGLRDT
# B3: T2-YGG: human TREM2 mutant, amino acids 156-164 replaced with larger hydrophobic residues; SEQ ID NO: 46 (protein)
# chain: MEPLRLLILLFVTELSGAHNTTVFQGVAGQSLQVSCPYDSMKHWGRRKAWCRQLGEKGPCQRVVSTHNLWLLSFLRRWNGSTAITDDTLGGTLTITLRNLQPHDAGLYQCQSLHGSEADTLRKVLVEVLADPLDHRDAGDLWFPGESESFEDAHVYGGWGGWGPEGEIPFPPTSILLLLACIFLIKILAASALWAAAWHGQKPGTHPPSELDCGHDPGYQLQTLPGLRDT
# B4: T2del11-16: human TREM2 6 amino acid deletion mutant of the stalk region; SEQ ID NO: 45 (protein)
# chain: MEPLRLLILLFVTELSGAHNTTVFQGVAGQSLQVSCPYDSMKHWGRRKAWCRQLGEKGPCQRVVSTHNLWLLSFLRRWNGSTAITDDTLGGTLTITLRNLQPHDAGLYQCQSLHGSEADTLRKVLVEVLADPLDHRDAGDLWFPGESESFEDAHVEHSEGEIPFPPTSILLLLACIFLIKILAASALWAAAWHGQKPGTHPPSELDCGHDPGYQLQTLPGLRDT
# Biological target: ADAM17 (Homo sapiens, UniProt P78536)
# Sequence (P78536 215-824): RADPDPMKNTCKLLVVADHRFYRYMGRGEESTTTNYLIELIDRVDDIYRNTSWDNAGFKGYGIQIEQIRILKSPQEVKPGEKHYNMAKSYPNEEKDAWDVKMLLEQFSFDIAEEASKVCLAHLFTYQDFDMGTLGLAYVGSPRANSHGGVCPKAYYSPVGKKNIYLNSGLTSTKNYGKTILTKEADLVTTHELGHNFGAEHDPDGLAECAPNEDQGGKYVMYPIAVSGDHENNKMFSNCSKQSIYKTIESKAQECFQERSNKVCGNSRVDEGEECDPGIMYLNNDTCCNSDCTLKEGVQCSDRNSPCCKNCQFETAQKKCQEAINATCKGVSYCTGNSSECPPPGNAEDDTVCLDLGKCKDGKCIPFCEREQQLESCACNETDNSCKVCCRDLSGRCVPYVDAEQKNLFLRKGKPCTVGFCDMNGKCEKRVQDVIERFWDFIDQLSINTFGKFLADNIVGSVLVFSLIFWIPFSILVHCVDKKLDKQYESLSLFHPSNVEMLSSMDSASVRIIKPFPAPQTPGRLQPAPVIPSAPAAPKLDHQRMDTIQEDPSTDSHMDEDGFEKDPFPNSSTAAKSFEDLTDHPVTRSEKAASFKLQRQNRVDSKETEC
# Assay: In vitro cleavage of TREM2 stalk region peptides by ADAM17 (HPLC)
# Format: biochemical
# Conditions: neutral buffer, up to 48 hours, HPLC of parent peptide
# From the text: FIGS. 5A-5E show ADAM17 cleaves TREM2 stalk region peptides in vitro at H157-S158. […] All peptides were obtained with an N-terminal 7-methoxycoumarin (Mca) fluorescent tag […]. Underlined amino acids indicates main sheddase cleavage site. AA112-171: SEQ ID NO: 24; Peptide 1: SEQ ID NO: 25; Peptide 2: SEQ ID NO: 26; Peptide 3: SEQ ID NO: 27; Peptide la: SEQ ID NO: 28; Peptide 2a: SEQ ID NO: 29; Peptide 4: SEQ ID NO: 30; Peptide 5: SEQ ID NO: 31; Peptide 6: SEQ ID NO: 32. […] FIG. 5C discloses SEQ ID NOS 83, 51 and 84, respectively, in order of appearance.
# (§1) In order to identify the cleavage site of ADAM10/ADAM17 within the stalk region of TREM2, in vitro cleavage patterns of stalk region-derived peptides were investigated and confirmed the cleavage site by determination of the C-terminus of shed soluble TREM2 from cell culture supernatants. A series of peptides covering the stalk region were designed for in vitro investigation of ADAM10/ADAM17 cleavage (FIG. 5A). All peptides were obtained with an N-terminal 7-methoxycoumarin (Mca) fluorescent tag. Peptides 1-3, 1a and 2a were incubated with ADAM17 in neutral buffer for up to 48 hours, and reaction was followed by HPLC analysis of aliquots withdrawn at different time points.
# (§2) HPLC-MS analysis of the reaction mixture of peptide3/ADAM17 identified one major product, SISRSLLEGEIPFP-NH2(SEQ ID NO: 51), together with 2 minor cleavage products (FIGS. 5B-5C). […] At these time points there was essentially no substrate left. Therefore, it can be concluded that the minor cleavage products originate from secondary ADAM17 cleavage of the main product.
row,Molecule,Cleavage by ADAM17
1,"1a: TREM2 stalk region derived synthetic peptide with 7-methoxycoumarin (Mca) tag; SEQ ID NO: 28 (VLVEVLADPLDHRD; also: 7-methoxycoumarin (Mca) tag, position not given here) [Peptide 1a]",only very little or no reduction of the parent peptide
2,"Peptide 1: TREM2 stalk region derived synthetic peptide with 7-methoxycoumarin (Mca) tag; SEQ ID NO: 25 (SLHGSEADTLRKVLVEVLAD; also: 7-methoxycoumarin (Mca) tag, position not given here)",only very little or no reduction of the parent peptide
3,"Peptide 2: TREM2 stalk region derived synthetic peptide with 7-methoxycoumarin (Mca) tag; SEQ ID NO: 26 (PLDHRDAGDLWFPGESESFE; also: 7-methoxycoumarin (Mca) tag, position not given here)",only very little or no reduction of the parent peptide
4,"Peptide 2a: TREM2 stalk region derived synthetic peptide with 7-methoxycoumarin (Mca) tag; SEQ ID NO: 29 (ESESFEDAHVEH; also: 7-methoxycoumarin (Mca) tag, position not given here)",only very little or no reduction of the parent peptide
5,"Peptide 3: TREM2 stalk region derived synthetic peptide with 7-methoxycoumarin (Mca) tag; SEQ ID NO: 27 (DAHVEHSISRSLLEGEIPFP; also: 7-methoxycoumarin (Mca) tag, position not given here)",Significant cleavage

# Biological target: T1, ADAM10
# Assay: In vitro cleavage of TREM2 stalk region peptides by ADAM10
# Format: biochemical
# Conditions: data not shown
# From the text: as §1, §2
# Recent literature gave insight into ADAM10 and ADAM17 preferences for the cleavage of peptides and proteins (Caescu et al., Biochem J 424, 79-88, 2009; Tucher et al., J Proteome Res 13, 2205-2214, 2014). […] After searching for the least preferred amino acids in substrates of ADAM10 and 17, isoleucine was identified as never occurring in P1 of ADAM substrates, and a very low preference for aspartate or proline in P1′ and in P2′. […] In these peptides the H-SI cleavage site was replaced with IPP, IPD, and IDP, respectively.
row,Cleavage by ADAM10,Molecule
1,very similar cleavage pattern,"Peptide 3: TREM2 stalk region derived synthetic peptide with 7-methoxycoumarin (Mca) tag; SEQ ID NO: 27 (DAHVEHSISRSLLEGEIPFP; also: 7-methoxycoumarin (Mca) tag, position not given here)"

# Tested on: HEK293-FT cells
# Assay: FACS analysis of cell surface expression of TREM2 WT and mutants in HEK293-FT cells with or without PMA
# Format: cell-based
# Conditions: co-transfected with hDAP12, 48 h, 30 min 50 ng/ml PMA, ratio of 1 = complete inhibition of shedding, FIG. 4B
# From the text: FIGS. 4A-4D show the amino acid stretch in the membrane proximal part of the TREM2 stalk region are important for shedding. […] Amino acid numbering according to iProt Q9NZC2. TM: transmembrane region. Gaps indicate deleted amino acids within the respective mutant. Exchanged amino acids in bold. Underlined amino acids indicates main sheddase cleavage site for generation of the C-terminus of TREM2 ectodomain. […] FIG. 4B is a bar graph showing FACS analysis of TREM2 WT and mutants transiently expressed in HEK293-FT cells. Cells were treated 48 hours after transfection with 50 ng/ml PMA or 0.05% DMSO. Cells were detached, labelled with AF1828 antiserum and analyzed by flow cytometry. Data are plotted as the ratio of untreated over PMA treatment for each mutant as mean±S.E. (n=3). Statistical differences to WT were calculated by Anova with Dunnett's multiple comparison test. *P<0.01. TREM2-double mutant was stably expressed in BWZ-lacZ-mDAP12 cells. Cells were seeded on an activating monoclonal antibody or isotype control and reporter gene activity assessed after 16 h. Data are plotted as the ratio of RGA for activating/control Ab as mean±S.E. (n=3). FIG. 4D is a bar graph showing replacement of the three amino acids at the sheddase cleavage site strongly increases TREM2 cell surface expression. FACS analysis of TREM2 WT and mutants transiently expressed in HEK293-FT cells. Cells were treated 48 h after transfection with 50 ng/ml PMA or 0.05% DMSO. Cells were detached, labelled with AF1828 antiserum and analyzed by flow cytometry. Data are plotted as the ratio of untreated over PMA treatment for each mutant as mean±S.E. (n=3). Statistical differences were calculated by Anova with Dunnett's multiple comparison test. *P<0.01.
# Human TREM2 mutants were generated using the QuikChange Site-directed Mutagenesis Kit (Stratagene) and confirmed by sequence analysis. Transfections of complementary DNA (cDNA) constructs were carried out in a 1:1 ratio of hDAP12 and TREM2 in HEK-FT cells using Lipofectamine LTX reagent (Thermofischer) according to the manufacturer's recommendations. 48 h after transfection cells were treated for 30 min with 50 ng/ml PMA or 0.05% DMSO and detached with a cell detachment solution Accutase (Sigma) and stained with goat anti human TREM2 antibody AF1828 (R&D Systems) or isotype control followed by incubation with the secondary Alexa Fluor 488 conjugated antibody (Molecular Probes). Acquisition was performed using a BD FACSCanto II (BD biosciences).
# Wild-type (WT) TREM2 or TREM2 mutants were transfected together with hDAP12 into HEK-FT cells. 48 h later cells were treated for 30 min with PMA to activate ADAMs at cell surface (see Sommer, Nature Communications 7, 11523, 2016). TREM2 cell surface expression was assessed by FACS, and results are presented as expression ratio of untreated over PMA treatment (FIG. 4B). The evaluation of each construct in the presence and absence of PMA treatment overcomes the possibility that some constructs might display different binding properties for the antiserum and allows direct comparison of changes in TREM2 cell surface expression after activation of sheddases. A ratio of 1 indicates complete inhibition of shedding. […] Next four shorter deletion mutants were generated encompassing this area, each 6 amino acids long (TRUNC1, T2del3-8, T2del6-11 and T2del11-16).
row,Molecule,PMA induced TREM2 shedding (TREM2 cell surface expression ratio of untreated over PMA treatment)
1,T2del3-8: human TREM2 6 amino acid deletion mutant of the stalk region; SEQ ID NO: 15 (LWFPGESESFEDAHVEHSISRSLLEGTSILLLLAC),no or very little effect on shedding
2,T2del6-11: human TREM2 6 amino acid deletion mutant of the stalk region; SEQ ID NO: 16 (LWFPGESESFEDAHVEHSISRSLFPPTSILLLLAC),no or very little effect on shedding
3,TRUNC1: human TREM2 6 amino acid deletion mutant of the stalk region; SEQ ID NO: 14 (LWFPGESESFEDAHVEHSISRSLLEGEIILLLLAC),no or very little effect on shedding
4,B1,maximally reduces TREM2 shedding
5,B2,more efficacious
6,B3,trend for reduction of TREM2 shedding
7,B4,reduced PMA induced shedding
